In the experiment the target is T1, human Fc Receptor-Like 5 (FcRL5), full length, expressed on cells (human, UniProt Q96RD9 16-977).
T1 construct: also called CD307e; IRTA2
T1 sequence: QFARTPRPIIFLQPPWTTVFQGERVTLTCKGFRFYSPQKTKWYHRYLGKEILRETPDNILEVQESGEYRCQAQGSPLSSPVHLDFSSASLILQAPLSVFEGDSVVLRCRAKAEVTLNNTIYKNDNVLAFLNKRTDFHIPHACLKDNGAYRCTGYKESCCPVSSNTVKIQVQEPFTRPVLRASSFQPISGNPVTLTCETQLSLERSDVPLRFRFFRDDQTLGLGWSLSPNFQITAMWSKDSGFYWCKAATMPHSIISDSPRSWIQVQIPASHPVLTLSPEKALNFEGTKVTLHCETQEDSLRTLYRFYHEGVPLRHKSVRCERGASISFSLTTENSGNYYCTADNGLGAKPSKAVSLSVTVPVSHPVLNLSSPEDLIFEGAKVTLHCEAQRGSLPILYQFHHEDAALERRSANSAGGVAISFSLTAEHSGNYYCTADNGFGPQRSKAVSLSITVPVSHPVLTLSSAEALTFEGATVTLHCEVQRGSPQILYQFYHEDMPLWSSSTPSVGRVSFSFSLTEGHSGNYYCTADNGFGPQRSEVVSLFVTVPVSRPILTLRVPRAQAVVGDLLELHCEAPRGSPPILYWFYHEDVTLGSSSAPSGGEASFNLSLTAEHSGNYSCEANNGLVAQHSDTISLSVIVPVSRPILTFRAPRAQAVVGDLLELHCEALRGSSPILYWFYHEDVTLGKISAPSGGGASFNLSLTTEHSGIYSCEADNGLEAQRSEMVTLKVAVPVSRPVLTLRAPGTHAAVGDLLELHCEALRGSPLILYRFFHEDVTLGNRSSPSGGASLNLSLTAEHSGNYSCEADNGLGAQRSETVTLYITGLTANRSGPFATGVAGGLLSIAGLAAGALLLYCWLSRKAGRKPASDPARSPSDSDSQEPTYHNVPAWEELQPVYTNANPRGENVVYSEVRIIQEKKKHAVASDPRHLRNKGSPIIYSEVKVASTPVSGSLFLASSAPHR
The experiment in a line: scFv phage: ELISA on His-tag FcRL5, flow cytometry on FcRL5-overexpressing 3T3 and Raji cells. For orientation: In an ELISA, binding on a coated surface is turned into a signal by an enzyme label.

B1: ET200-011 scFv (scFv)
scFv: QSVVTQPPSVSAAPGQRVTISCSGSSSNISIYDVSWYQQLPGTAPKLLIYGNNKRPSGIADRFSGSTSGTSATLGITGLQTGDEADYYCGTWDDSLSGGVFGGGTKLTVLGSRGGGGSGGGGSGGGGSLEMAQMQLVQSGAEVKKPGSSVKVSCEASGGTLSSYAINWVRQAPGQGLEWMGGIIPMFGTAHYAQKFQGRVTITADESTKTAYMELSSLRSEDTAVYYCARGVHYASFDHWGQGTLVTVSS
notes: VL-linker-VH; screened as scFv phage clone
With B1, the binding result was “binds”.

For the origin of these results see patent publication US20230020729A1 (Memorial Sloan Kettering, published 2023).
